System: Nc1nc(=O)[nH]cc1F
Assay: steady-state kinetics
Type: biochemical, Saccharomyces cerevisiae
Details: Zn2+

In the case of “yeast cytosine deaminase (yCD) (Saccharomyces cerevisiae S288C; E64A)”, the Km is reported as 33 ± 6 mM, the kcat is reported as 7.3e-05 ± 6e-06 s⁻¹ and the kcat/Km is reported as 0.0022 M⁻¹ s⁻¹.

“yeast cytosine deaminase (yCD) (Saccharomyces cerevisiae S288C; E64D)” showed a Km of 19 ± 6 mM, a kcat of 0.0051 ± 0.001 s⁻¹ and a kcat/Km of 0.26 M⁻¹ s⁻¹.

Reference: publication PMC3272785
